Numbering of substitutions follows the chain as printed. Names may count otherwise.
B1: C5A (XPA23) VH F35S (antibody, V domains shown)
VH: EVQLLESGGGLVQPGGSLRLSCAASGFTFSKYFMSWVRQAPGKGLEWVSVISPSGGMTRYADSVKGRFTISRDNSKNTLYLQMNSLRAEDTAVYYCARVGYGGNSDYWGQGTLVTVSS
VL: DIQMTQSPSSVSASVGDRLTIICRASQDINRWLAWYQQTPGNAPKLLIHSATSLQSGVPSRFSGSGSGTDFTLTINSLQPEDFATYYCQQADSFPLTFGGGTKVEIK
B2: C5A (XPA23) VH F35T (antibody, V domains shown)
VH: B1 VH with S35T
VL: B1 VL
B3: C5A (XPA23) VH F35N (antibody, V domains shown)
VH: B1 VH with S35N
VL: B1 VL
B4: C5A (XPA23) VH F35Y (antibody, V domains shown)
VH: B1 VH with S35Y
VL: B1 VL
B5: C5A (XPA23) VH V50T (antibody, V domains shown)
VH: B1 VH with S35F, V50T
VL: B1 VL
B6: C5A (XPA23) VH V50N (antibody, V domains shown)
VH: B1 VH with S35F, V50N
VL: B1 VL
B7: C5A (XPA23) VH I51D (antibody, V domains shown)
VH: B1 VH with S35F, I51D
VL: B1 VL
B8: C5A (XPA23) VH I51E (antibody, V domains shown)
VH: B1 VH with S35F, I51E
VL: B1 VL
B9: C5A (XPA23) VH I51K (antibody, V domains shown)
VH: B1 VH with S35F, I51K
VL: B1 VL
B10: C5A (XPA23) VH I51H (antibody, V domains shown)
VH: B1 VH with S35F, I51H
VL: B1 VL
B11: C5A (XPA23) VH I51R (antibody, V domains shown)
VH: B1 VH with S35F, I51R
VL: B1 VL
B12: C5A (XPA23) VH I51S (antibody, V domains shown)
VH: B1 VH with S35F, I51S
VL: B1 VL
B13: C5A (XPA23) VH I51T (antibody, V domains shown)
VH: B1 VH with S35F, I51T
VL: B1 VL
B14: C5A (XPA23) VH I51N (antibody, V domains shown)
VH: B1 VH with S35F, I51N
VL: B1 VL
B15: C5A (XPA23) VH I51Q (antibody, V domains shown)
VH: B1 VH with S35F, I51Q
VL: B1 VL
B16: C5A (XPA23) VH I51Y (antibody, V domains shown)
VH: B1 VH with S35F, I51Y
VL: B1 VL
B17: C5A (XPA23) VH S52T (antibody, V domains shown)
VH: B1 VH with S35F, S52T
VL: B1 VL
B18: C5A (XPA23) VH P53E (antibody, V domains shown)
VH: B1 VH with S35F, P53E
VL: B1 VL
B19: C5A (XPA23) VH P53K (antibody, V domains shown)
VH: B1 VH with S35F, P53K
VL: B1 VL
B20: C5A (XPA23) VH P53S (antibody, V domains shown)
VH: B1 VH with S35F, P53S
VL: B1 VL
B21: C5A (XPA23) VH P53N (antibody, V domains shown)
VH: B1 VH with S35F, P53N
VL: B1 VL
B22: C5A (XPA23) VH P53Q (antibody, V domains shown)
VH: B1 VH with S35F, P53Q
VL: B1 VL
B23: C5A (XPA23) VH P53Y (antibody, V domains shown)
VH: B1 VH with S35F, P53Y
VL: B1 VL
B24: C5A (XPA23) VH S54D (antibody, V domains shown)
VH: B1 VH with S35F, S54D
VL: B1 VL
B25: C5A (XPA23) VH S54E (antibody, V domains shown)
VH: B1 VH with S35F, S54E
VL: B1 VL
B26: C5A (XPA23) VH S54K (antibody, V domains shown)
VH: B1 VH with S35F, S54K
VL: B1 VL
B27: C5A (XPA23) VH S54R (antibody, V domains shown)
VH: B1 VH with S35F, S54R
VL: B1 VL
B28: C5A (XPA23) VH S54T (antibody, V domains shown)
VH: B1 VH with S35F, S54T
VL: B1 VL
B29: C5A (XPA23) VH S54N (antibody, V domains shown)
VH: B1 VH with S35F, S54N
VL: B1 VL
B30: C5A (XPA23) VH S54Q (antibody, V domains shown)
VH: B1 VH with S35F, S54Q
VL: B1 VL
B31: C5A (XPA23) VH S54Y (antibody, V domains shown)
VH: B1 VH with S35F, S54Y
VL: B1 VL
B32: C5A (XPA23) VH G55E (antibody, V domains shown)
VH: B1 VH with S35F, G55E
VL: B1 VL
B33: C5A (XPA23) VH G55K (antibody, V domains shown)
VH: B1 VH with S35F, G55K
VL: B1 VL
B34: C5A (XPA23) VH G55R (antibody, V domains shown)
VH: B1 VH with S35F, G55R
VL: B1 VL
B35: C5A (XPA23) VH G55S (antibody, V domains shown)
VH: B1 VH with S35F, G55S
VL: B1 VL
B36: C5A (XPA23) VH G55N (antibody, V domains shown)
VH: B1 VH with S35F, G55N
VL: B1 VL
B37: C5A (XPA23) VH G55Q (antibody, V domains shown)
VH: B1 VH with S35F, G55Q
VL: B1 VL
B38: C5A (XPA23) VH G55Y (antibody, V domains shown)
VH: B1 VH with S35F, G55Y
VL: B1 VL
B39: C5A (XPA23) VH G56D (antibody, V domains shown)
VH: B1 VH with S35F, G56D
VL: B1 VL

Biological target: binding partner of C5A (XPA23)
Test: Biacore

Row | Binder | fold affinity vs original [fold] | fold difference in affinity vs original [fold]
1 | B1 | 0.09 | –
2 | B2 | – | 0.74
3 | B3 | 0.86 | –
4 | B4 | 0.85 | –
5 | B5 | – | 0.03
6 | B6 | 0.03 | –
7 | B7 | 0.07 | –
8 | B8 | 0.73 | –
9 | B9 | 0.11 | –
10 | B10 | 0.08 | –
11 | B11 | 0.1 | –
12 | B12 | 0.69 | –
13 | B13 | – | 0.86
14 | B14 | 0.68 | –
15 | B15 | 0.83 | –
16 | B16 | 1.75 | –
17 | B17 | – | 0.04
18 | B18 | 0.03 | –
19 | B19 | 0.04 | –
20 | B20 | 0.03 | –

Row | Binder | fold affinity vs original [fold] | fold difference in affinity vs original [fold]
21 | B21 | 0.06 | –
22 | B22 | 0.03 | –
23 | B23 | 0.03 | –
24 | B24 | 0.12 | –
25 | B25 | 0.03 | –
26 | B26 | 1.53 | –
27 | B27 | 1.43 | –
28 | B28 | – | 0.14
29 | B29 | 0.08 | –
30 | B30 | 1.01 | –
31 | B31 | 0.99 | –
32 | B32 | 0.11 | –
33 | B33 | 0.11 | –
34 | B34 | 0.95 | –
35 | B35 | 1.02 | –
36 | B36 | 0.1 | –
37 | B37 | 0.9 | –
38 | B38 | 0.08 | –
39 | B39 | 0.05 | –

Biological target: binding partner of C5A (XPA23)
Test: Biacore, K-off

Row | Binder | fold difference in affinity vs original [fold]
40 | B1 | 0.09
41 | B2 | 0.74
42 | B3 | 0.86
43 | B4 | 0.85
44 | B5 | 0.03
45 | B6 | 0.03
46 | B7 | 0.07
47 | B8 | 0.73
48 | B9 | 0.11
49 | B10 | 0.08
50 | B11 | 0.1
51 | B12 | 0.69
52 | B13 | 0.86
53 | B14 | 0.68
54 | B15 | 0.83
55 | B16 | 1.75
56 | B17 | 0.04
57 | B18 | 0.03
58 | B19 | 0.04
59 | B20 | 0.03

Row | Binder | fold difference in affinity vs original [fold]
60 | B21 | 0.06
61 | B22 | 0.03
62 | B23 | 0.03
63 | B24 | 0.12
64 | B25 | 0.03
65 | B26 | 1.53
66 | B27 | 1.43
67 | B28 | 0.14
68 | B29 | 0.08
69 | B30 | 1.01
70 | B31 | 0.99
71 | B32 | 0.11
72 | B33 | 0.11
73 | B34 | 0.95
74 | B35 | 1.02
75 | B36 | 0.1
76 | B37 | 0.9
77 | B38 | 0.08
78 | B39 | 0.05

From patent publication US20110118447A1
